Experimental findings from patent US20060040319A1, “Multiple sensor-containing active modified polypeptides, preparation and uses thereof” (priority 2000, published 2006) are described below.

“Also recorded” adds a separate entry of the source.

Series [1] addresses T1, GST fusion of mouse c-Abl containing only the SH2 and kinase domains (Mus musculus, UniProt P00520).
T1 construct: a GST fusion of mouse c-Abl containing only the SH2 and kinase domains; made in house; host or cells: E. coli BL21
T1 sequence (P00520 127-493): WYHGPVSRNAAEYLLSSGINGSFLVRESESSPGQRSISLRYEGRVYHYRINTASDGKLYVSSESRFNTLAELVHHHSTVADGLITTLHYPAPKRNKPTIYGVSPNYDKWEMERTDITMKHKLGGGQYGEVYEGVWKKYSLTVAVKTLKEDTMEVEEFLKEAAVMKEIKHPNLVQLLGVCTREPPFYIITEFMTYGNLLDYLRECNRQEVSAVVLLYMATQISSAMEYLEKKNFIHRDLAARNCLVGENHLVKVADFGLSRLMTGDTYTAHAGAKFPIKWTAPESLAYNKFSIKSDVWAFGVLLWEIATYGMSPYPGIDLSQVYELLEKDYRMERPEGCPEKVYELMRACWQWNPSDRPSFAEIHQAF
Nature of the series: Kinase assay with truncated c-Abl containing only the SH2 and kinase domains. Format: biochemical. As to conditions: truncated c-Abl (SH2 and kinase domains only), over 60 min. As to the method: Purified Rh-(Crk-II)-Fl prepared as described in Example I was treated with either full length recombinant (Baculovirus/SF9) mouse c-Abl or a GST fusion of mouse c-Abl containing only the SH2 and kinase domains (expressed in E. coli BL21 essentially as described (19)). In a typical experiment, the appropriate c-Abl construct was incubated in reaction buffer (2 mM DTT, 0.2 mg/ml BSA, 10 mM Mg^2+, 50 mM Tris, pH 7.4, either with or without ATP (500 μM)) for 5 min at 30° C. before addition of Rh-(Crk-II)-Fl (final concentration=0.25 μM). In order to ensure that equal amounts of active c-Abl enzyme were added to each reaction, preliminary titration experiments were carried out using an optimized peptide substrate for c-Abl (EAIYAAPFAKKK (SEQ ID No:2) (20)). […] In all cases, aliquots of the reaction mixtures were removed at ˜1 min and 60 min, quenched with EDTA (final conc.=40 mM), and then analyzed by native-PAGE and/or Western blotting and fluorescence spectroscopy. […]
Fluorescence Spectroscopy. […] Excitation was at 490 nm with a 2.5 nm slit and the fluorescence emission was monitored at 520 nm and 580 nm through a 4 nm slit. […] Rh-(Crk-II)-Fl was treated with full length recombinant c-Abl and aliquots of the reaction mixture were analyzed by fluorescence spectroscopy and western blotting at ˜1 min and 60 min time-points. […]

Series [2] concerns the target T2, full length recombinant c-Abl (Mus musculus, UniProt P00520).
T2 construct: full length recombinant (Baculovirus/SF9) mouse c-Abl; made in house; host or cells: Baculovirus/SF9
The series is described as follows: Kinase assay: phosphorylation of Rh-(Crk-II)-Fl by full length c-Abl (FRET, western blot, native PAGE). Format: biochemical. On the procedure:
Purified Rh-(Crk-II)-Fl prepared as described in Example I was treated with either full length recombinant (Baculovirus/SF9) mouse c-Abl or a GST fusion of mouse c-Abl containing only the SH2 and kinase domains (expressed in E. coli BL21 essentially as described (19)). In a typical experiment, the appropriate c-Abl construct was incubated in reaction buffer (2 mM DTT, 0.2 mg/ml BSA, 10 mM Mg^2+, 50 mM Tris, pH 7.4, either with or without ATP (500 μM)) for 5 min at 30° C. before addition of Rh-(Crk-II)-Fl (final concentration=0.25 μM). In order to ensure that equal amounts of active c-Abl enzyme were added to each reaction, preliminary titration experiments were carried out using an optimized peptide substrate for c-Abl (EAIYAAPFAKKK (SEQ ID No:2) (20)). For peptide inhibition studies, Rh-(Crk-II)-Fl was pre-incubated for 30 min with a high affinity ligand for the N-SH3 domain of Crk, PPPALPPKRRR-NH2 (SEQ ID No:7) (21), such that the final concentration of ligand in the kinase assay was 12 μM. In all cases, aliquots of the reaction mixtures were removed at ˜1 min and 60 min, quenched with EDTA (final conc.=40 mM), and then analyzed by native-PAGE and/or Western blotting and fluorescence spectroscopy.
Western Blotting. Standard procedures were used to probe for tyrosine phosphorylation using a mouse monoclonal anti-phosphotyrosine primary antibody (PY20, Santa Cruz Biotechnology) and a HPO-conjugated goat anti-mouse polyclonal secondary antibody (Amersham Pharmacia).
Fluorescence Spectroscopy. Experiments were conducted at 18° C. in a stirred 0.5 cm-pathlength cell using a SPEX FL3-11C fluorimeter. Samples from the reactions (50 μl) were diluted into 2 mM DTT, 0.4 mg/mL BSA, 140 mM NaCl, 50 mM Tris, pH 7.4 buffer (450 μl) for analysis. Excitation was at 490 nm with a 2.5 nm slit and the fluorescence emission was monitored at 520 nm and 580 nm through a 4 nm slit. Purified Rh-(Crk-II)-Fl was assayed for its ability to biosense Crk-II phosphorylation by the c-Abl protein tyrosine kinase. As indicated previously, phosphorylation by c-Abl leads to an intramolecular association between a phosphotyrosine motif and the Crk-II SH2 domain, which could potentially be reported by the dual-labeled Crk-II derivative (FIG. 1). Rh-(Crk-II)-Fl was treated with full length recombinant c-Abl and aliquots of the reaction mixture were analyzed by fluorescence spectroscopy and western blotting at ˜1 min and 60 min time-points. […] In contrast, when ATP was included in the reaction mixture, a phosphorylation-dependent increase in the emission intensity ratio (a decrease in FRET) was consistently observed.
For orientation: In western blotting, separated proteins are transferred to a membrane and probed.

T2 sequence (P00520 whole entry): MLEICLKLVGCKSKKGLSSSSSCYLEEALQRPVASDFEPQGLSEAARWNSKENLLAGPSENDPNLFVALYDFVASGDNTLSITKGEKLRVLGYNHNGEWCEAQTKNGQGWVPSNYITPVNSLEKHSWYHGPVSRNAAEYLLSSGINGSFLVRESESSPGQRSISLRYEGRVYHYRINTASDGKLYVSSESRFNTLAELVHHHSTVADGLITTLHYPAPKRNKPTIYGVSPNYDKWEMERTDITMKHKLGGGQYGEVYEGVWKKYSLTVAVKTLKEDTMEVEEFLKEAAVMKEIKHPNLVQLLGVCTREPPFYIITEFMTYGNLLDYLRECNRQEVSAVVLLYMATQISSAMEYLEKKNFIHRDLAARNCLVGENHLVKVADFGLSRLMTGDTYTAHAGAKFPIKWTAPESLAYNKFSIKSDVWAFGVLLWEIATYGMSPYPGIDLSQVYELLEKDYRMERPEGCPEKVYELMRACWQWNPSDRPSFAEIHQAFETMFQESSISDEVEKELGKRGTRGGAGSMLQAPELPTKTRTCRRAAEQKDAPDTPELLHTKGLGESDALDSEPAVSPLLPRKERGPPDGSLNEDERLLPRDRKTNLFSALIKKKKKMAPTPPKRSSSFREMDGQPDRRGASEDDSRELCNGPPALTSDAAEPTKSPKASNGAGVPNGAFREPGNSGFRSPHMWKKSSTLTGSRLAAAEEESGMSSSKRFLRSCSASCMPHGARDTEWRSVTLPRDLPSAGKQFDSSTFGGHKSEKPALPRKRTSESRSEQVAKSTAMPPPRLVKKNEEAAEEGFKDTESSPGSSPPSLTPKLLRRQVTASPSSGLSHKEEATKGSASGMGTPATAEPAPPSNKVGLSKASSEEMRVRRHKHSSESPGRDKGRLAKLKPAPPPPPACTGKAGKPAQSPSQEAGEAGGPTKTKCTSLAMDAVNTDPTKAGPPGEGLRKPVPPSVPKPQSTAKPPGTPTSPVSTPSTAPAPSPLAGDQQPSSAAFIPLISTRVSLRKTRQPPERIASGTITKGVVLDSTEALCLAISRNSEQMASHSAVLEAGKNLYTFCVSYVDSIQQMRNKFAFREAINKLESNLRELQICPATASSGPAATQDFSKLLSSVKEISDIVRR

B1: Rh-(Crk-II)-Fl: semi-synthetic mouse Crk-II adapter protein with tetramethylrhodamine and fluorescein FRET pair at the N- and C-termini (protein)
chain: KRGCAGNFDSEERSSWYWGRLSRQEAVALLQGQRHGVFLVRDSSTSPGDYVLSVSENSRVSHYIINSSGPRPPVPPSPAQPPPGVSPSRLRIGDQEFDSLPALLEFYKIHYLDTTTLIEPVARSRQGSGVILRQEEAEYVRALFDFNGNDEEDLPFKKGDILRIRDKPEEQWWNAEDSEGKRGMIPVPYVEKYRPASASVSALIGGNQEGSHPQPLGGPEPGPYAQPSVNTPLPNLQNGPIYARVIQKRVPNAYDKTALALEVGELVKVTKINVSGQWEGECNGKRGHFPFTHVRLLDQQNPDEDFSGCGXGLEVLFQ
modifications: not fully specified; tetramethylrhodamine N-terminal, fluorescein C-terminal; Protein Kinase Target
notes: semi-synthetic mouse Crk-II adapter protein with tetramethylrhodamine and fluorescein FRET pair at the N- and C-termini
Regarding B1, the “phosphorylation by fluorescence and western blotting analysis” value in series [1] is reported as “did not lead to any detectable phosphorylation; also recorded: complete lack of phosphorylation”. Besides, in series [2] (absence of ATP), the “change in FRET” value is “essentially no change in FRET” and the “phosphorylation detected with anti-phosphotyrosine monoclonal antibody (western)” value is “no Rh-(Crk-II)-Fl phosphorylation could be detected”. In addition, in series [2] (with ATP, after 1 h), the “extent of phosphorylation by native PAGE mobility” value is “completely phosphorylated”. For the same molecule, the “decrease in FRET (increase in Fl:Rh emission intensity ratio)” value in series [2] (with ATP, after 60 min) is listed as roughly 3%.
